This note sets out measurements from patent publication US20200377604.

Data set [1] can be described thus: gel filtration of the Fc, mAU at 280 nm against time; low, broad peak at 19.477 min. (In general: In gel filtration, larger molecules generally elute earlier.)
Data set [2] in a line: gel filtration of the Fc, mAU at 280 nm against time; low, broad peak at 19.455 min.

B1: knob Fc F241S/F243R (protein)
chain: DKTHTSPPSPAPELLGGPSVSLRPPKPKDTLMISRTPEVTCVVVDVSHEDPEVKFNWYVDGVEVHNAKTKPREEQYNSTYRVVSVLTVLHQDWLNGKEYKCKVSNKALPAPIEKTISKAKGQPREPQVYTLPPSREEMTKNQVSLWCLVKGFYPSDIAVEWESNGQPENNYKTTPPVLDSDGSFFLYSKLTVDKSRWQQGNVFSCSVMHEALHNHYTQKSLSLSPGK
As for B1, the “Area of the small peak ahead of the monomer peak (dimer position; not labelled Dimer on the sheet)” value in data set [1] is recorded as “Area: 1943.99”.

B2: knob Fc F241R/F243S (protein)
chain: DKTHTSPPSPAPELLGGPSVRLSPPKPKDTLMISRTPEVTCVVVDVSHEDPEVKFNWYVDGVEVHNAKTKPREEQYNSTYRVVSVLTVLHQDWLNGKEYKCKVSNKALPAPIEKTISKAKGQPREPQVYTLPPSREEMTKNQVSLWCLVKGFYPSDIAVEWESNGQPENNYKTTPPVLDSDGSFFLYSKLTVDKSRWQQGNVFSCSVMHEALHNHYTQKSLSLSPGK
For B2, the “Area of the small peak ahead of the monomer peak (dimer position; not labelled Dimer on the sheet)” value in data set [2] is “Area: 3287.62”.
